Molecular target: GCaMP2 [GFP: P42212]
Assay: SEC

percent present as dimer at the concentrations seen in the brain slice (∼10 μM): 5% | stoichiometry N: 2
Substance: GCaMP2 (from UniProt P42212 149-238; P42212 1-144)

Reference: paper PMC2649101
